This note sets out measurements from US20260001928A1 (CORTERIA PHARMACEUTICALS, priority 2022, published 2026).

*1 amine or outer side, *2 acyl side, *3 side chain or, on linkers, in order; H or OH if unused. Where no end group is shown, it is not given here. Side-chain parts run from the residue outwards. [ ]: non-standard residue; d: D form. The star is where a group is joined. C18 diacid = O=C(O)CCCCCCCCCCCCCCCCC(=O)*; C16 diacid = O=C(O)CCCCCCCCCCCCCCC(=O)*; γGlu = O=C(O)[C@H](CCC(=O)[*:2])N[*:1]; C12 diacid = O=C(O)CCCCCCCCCCC(=O)*; NMeI = CC[C@H](C)[C@H](NC)C(=O)O; Api = NC1(C(=O)O)CCNCC1; Pentanoyl = CCCCC(=O)*; Aib = CC(C)(N)C(=O)O; Propionyl = CCC(=O)*

Assay [1] deals with human corticotropin-releasing factor 2a (CRF2a receptor) (human), Q13324. The assay can be described thus: cell-based or functional assay.
human corticotropin-releasing factor 2a (CRF2a receptor) (human), Q13324, sequence (Q13324 20-411): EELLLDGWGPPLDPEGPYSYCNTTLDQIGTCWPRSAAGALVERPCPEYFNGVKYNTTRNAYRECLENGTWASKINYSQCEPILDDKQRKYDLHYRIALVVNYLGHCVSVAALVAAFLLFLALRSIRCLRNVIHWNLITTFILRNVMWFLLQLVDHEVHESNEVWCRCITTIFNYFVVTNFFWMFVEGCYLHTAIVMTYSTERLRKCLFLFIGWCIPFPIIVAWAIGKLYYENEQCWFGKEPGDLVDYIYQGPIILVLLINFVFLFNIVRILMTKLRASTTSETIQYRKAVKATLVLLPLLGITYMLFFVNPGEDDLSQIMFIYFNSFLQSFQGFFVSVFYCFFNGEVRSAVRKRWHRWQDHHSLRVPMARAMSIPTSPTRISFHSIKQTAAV
The target in a further assay is T1, CRF1R receptor (UniProt P34998 24-415, limits assumed).
T1 sequence (looked up): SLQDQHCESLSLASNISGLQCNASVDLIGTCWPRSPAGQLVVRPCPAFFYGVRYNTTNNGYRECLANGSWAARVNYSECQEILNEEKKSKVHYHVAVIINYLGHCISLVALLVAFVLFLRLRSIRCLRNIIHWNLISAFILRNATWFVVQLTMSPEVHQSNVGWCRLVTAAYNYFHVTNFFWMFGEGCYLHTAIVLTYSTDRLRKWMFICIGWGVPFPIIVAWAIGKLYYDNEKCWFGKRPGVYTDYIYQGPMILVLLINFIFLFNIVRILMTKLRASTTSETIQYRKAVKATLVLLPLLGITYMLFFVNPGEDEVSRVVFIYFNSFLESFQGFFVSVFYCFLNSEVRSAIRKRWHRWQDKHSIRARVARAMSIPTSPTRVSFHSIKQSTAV
Description: cell-based or functional assay.

B1: SEQ ID NO 183 (peptide)
peptide: Ac-IVLSLD[dV]PIKLK([γGlu-C12 diacid])KILLEQEKQKKQREQAETN[Api]QILAQV-NH2
SMILES: CC[C@H](C)[C@H](NC(C)=O)C(=O)N[C@H](C(=O)N[C@@H](CC(C)C)C(=O)N[C@@H](CO)C(=O)N[C@@H](CC(C)C)C(=O)N[C@@H](CC(=O)O)C(=O)N[C@@H](C(=O)N1CCC[C@H]1C(=O)N[C@H](C(=O)N[C@@H](CCCCN)C(=O)N[C@@H](CC(C)C)C(=O)N[C@@H](CCCCNC(=O)CC[C@H](NC(=O)CCCCCCCCCCC(=O)O)C(=O)O)C(=O)N[C@@H](CCCCN)C(=O)N[C@H](C(=O)N[C@@H](CC(C)C)C(=O)N[C@@H](CC(C)C)C(=O)N[C@@H](CCC(=O)O)C(=O)N[C@@H](CCC(N)=O)C(=O)N[C@@H](CCC(=O)O)C(=O)N[C@@H](CCCCN)C(=O)N[C@@H](CCC(N)=O)C(=O)N[C@@H](CCCCN)C(=O)N[C@@H](CCCCN)C(=O)N[C@@H](CCC(N)=O)C(=O)N[C@@H](CCCNC(=N)N)C(=O)N[C@@H](CCC(=O)O)C(=O)N[C@@H](CCC(N)=O)C(=O)N[C@@H](C)C(=O)N[C@@H](CCC(=O)O)C(=O)N[C@H](C(=O)N[C@@H](CC(N)=O)C(=O)NC1(C(=O)N[C@@H](CCC(N)=O)C(=O)N[C@H](C(=O)N[C@@H](CC(C)C)C(=O)N[C@@H](C)C(=O)N[C@@H](CCC(N)=O)C(=O)N[C@H](C(N)=O)C(C)C)[C@@H](C)CC)CCNCC1)[C@@H](C)O)[C@@H](C)CC)[C@@H](C)CC)C(C)C)C(C)C
B1: in assay [1], the EC50 [nM] (cAMP) worked out at 2.47 nM. The “Emax (% I)” value with CRF1R receptor amounted to 11%.

B2: SEQ ID NO 185 (peptide)
peptide: Pentanoyl-VLSLD[dV]PIKLK([γGlu-C12 diacid])KILLEQEKQKKQREQAETN[Aib]QILAQV-NH2
SMILES: CCCCC(=O)N[C@H](C(=O)N[C@@H](CC(C)C)C(=O)N[C@@H](CO)C(=O)N[C@@H](CC(C)C)C(=O)N[C@@H](CC(=O)O)C(=O)N[C@@H](C(=O)N1CCC[C@H]1C(=O)N[C@H](C(=O)N[C@@H](CCCCN)C(=O)N[C@@H](CC(C)C)C(=O)N[C@@H](CCCCNC(=O)CC[C@H](NC(=O)CCCCCCCCCCC(=O)O)C(=O)O)C(=O)N[C@@H](CCCCN)C(=O)N[C@H](C(=O)N[C@@H](CC(C)C)C(=O)N[C@@H](CC(C)C)C(=O)N[C@@H](CCC(=O)O)C(=O)N[C@@H](CCC(N)=O)C(=O)N[C@@H](CCC(=O)O)C(=O)N[C@@H](CCCCN)C(=O)N[C@@H](CCC(N)=O)C(=O)N[C@@H](CCCCN)C(=O)N[C@@H](CCCCN)C(=O)N[C@@H](CCC(N)=O)C(=O)N[C@@H](CCCNC(=N)N)C(=O)N[C@@H](CCC(=O)O)C(=O)N[C@@H](CCC(N)=O)C(=O)N[C@@H](C)C(=O)N[C@@H](CCC(=O)O)C(=O)N[C@H](C(=O)N[C@@H](CC(N)=O)C(=O)NC(C)(C)C(=O)N[C@@H](CCC(N)=O)C(=O)N[C@H](C(=O)N[C@@H](CC(C)C)C(=O)N[C@@H](C)C(=O)N[C@@H](CCC(N)=O)C(=O)N[C@H](C(N)=O)C(C)C)[C@@H](C)CC)[C@@H](C)O)[C@@H](C)CC)[C@@H](C)CC)C(C)C)C(C)C
Consider B2, for which the EC50 [nM] (cAMP) in assay [1] was 3.54 nM. Also, the “Emax (% I)” value in the assay with CRF1R receptor came to 2%.

B3: SEQ ID NO 186 (peptide)
peptide: [NMeI]VLSLD[dV]PIKLK([γGlu-C12 diacid])KILLEQEKQKKQREQAETN[Aib]QILAQV-NH2
modifications: N-terminus assumed
SMILES: CC[C@H](C)[C@H](NC)C(=O)N[C@H](C(=O)N[C@@H](CC(C)C)C(=O)N[C@@H](CO)C(=O)N[C@@H](CC(C)C)C(=O)N[C@@H](CC(=O)O)C(=O)N[C@@H](C(=O)N1CCC[C@H]1C(=O)N[C@H](C(=O)N[C@@H](CCCCN)C(=O)N[C@@H](CC(C)C)C(=O)N[C@@H](CCCCNC(=O)CC[C@H](NC(=O)CCCCCCCCCCC(=O)O)C(=O)O)C(=O)N[C@@H](CCCCN)C(=O)N[C@H](C(=O)N[C@@H](CC(C)C)C(=O)N[C@@H](CC(C)C)C(=O)N[C@@H](CCC(=O)O)C(=O)N[C@@H](CCC(N)=O)C(=O)N[C@@H](CCC(=O)O)C(=O)N[C@@H](CCCCN)C(=O)N[C@@H](CCC(N)=O)C(=O)N[C@@H](CCCCN)C(=O)N[C@@H](CCCCN)C(=O)N[C@@H](CCC(N)=O)C(=O)N[C@@H](CCCNC(=N)N)C(=O)N[C@@H](CCC(=O)O)C(=O)N[C@@H](CCC(N)=O)C(=O)N[C@@H](C)C(=O)N[C@@H](CCC(=O)O)C(=O)N[C@H](C(=O)N[C@@H](CC(N)=O)C(=O)NC(C)(C)C(=O)N[C@@H](CCC(N)=O)C(=O)N[C@H](C(=O)N[C@@H](CC(C)C)C(=O)N[C@@H](C)C(=O)N[C@@H](CCC(N)=O)C(=O)N[C@H](C(N)=O)C(C)C)[C@@H](C)CC)[C@@H](C)O)[C@@H](C)CC)[C@@H](C)CC)C(C)C)C(C)C
In assay [1], B3 had an EC50 [nM] (cAMP) of 0.79 nM. Further, the “Emax (% I)” value in the assay with CRF1R receptor amounted to 2%.

B4: SEQ ID NO 187 (peptide)
peptide: Ac-IVLSLD[dV]PIKLK([γGlu-C18 diacid])KILLEQEKQKAQREQAETN[Api]QILAQV-NH2
SMILES: CC[C@H](C)[C@H](NC(C)=O)C(=O)N[C@H](C(=O)N[C@@H](CC(C)C)C(=O)N[C@@H](CO)C(=O)N[C@@H](CC(C)C)C(=O)N[C@@H](CC(=O)O)C(=O)N[C@@H](C(=O)N1CCC[C@H]1C(=O)N[C@H](C(=O)N[C@@H](CCCCN)C(=O)N[C@@H](CC(C)C)C(=O)N[C@@H](CCCCNC(=O)CC[C@H](NC(=O)CCCCCCCCCCCCCCCCC(=O)O)C(=O)O)C(=O)N[C@@H](CCCCN)C(=O)N[C@H](C(=O)N[C@@H](CC(C)C)C(=O)N[C@@H](CC(C)C)C(=O)N[C@@H](CCC(=O)O)C(=O)N[C@@H](CCC(N)=O)C(=O)N[C@@H](CCC(=O)O)C(=O)N[C@@H](CCCCN)C(=O)N[C@@H](CCC(N)=O)C(=O)N[C@@H](CCCCN)C(=O)N[C@@H](C)C(=O)N[C@@H](CCC(N)=O)C(=O)N[C@@H](CCCNC(=N)N)C(=O)N[C@@H](CCC(=O)O)C(=O)N[C@@H](CCC(N)=O)C(=O)N[C@@H](C)C(=O)N[C@@H](CCC(=O)O)C(=O)N[C@H](C(=O)N[C@@H](CC(N)=O)C(=O)NC1(C(=O)N[C@@H](CCC(N)=O)C(=O)N[C@H](C(=O)N[C@@H](CC(C)C)C(=O)N[C@@H](C)C(=O)N[C@@H](CCC(N)=O)C(=O)N[C@H](C(N)=O)C(C)C)[C@@H](C)CC)CCNCC1)[C@@H](C)O)[C@@H](C)CC)[C@@H](C)CC)C(C)C)C(C)C
In turn, B4 showed an EC50 [nM] (cAMP) in assay [1] of 0.26 nM. In the assay with CRF1R receptor, the “EC50” value worked out at 195 nM and the “Emax (% I)” value is 37%.

B5: SEQ ID NO 184 (peptide)
peptide: Ac-IVLSLD[dV]PIKLK([γGlu-C12 diacid])KILLEQEKQK[Aib]QREQAETN[Api]QILAQV-NH2
SMILES: CC[C@H](C)[C@H](NC(C)=O)C(=O)N[C@H](C(=O)N[C@@H](CC(C)C)C(=O)N[C@@H](CO)C(=O)N[C@@H](CC(C)C)C(=O)N[C@@H](CC(=O)O)C(=O)N[C@@H](C(=O)N1CCC[C@H]1C(=O)N[C@H](C(=O)N[C@@H](CCCCN)C(=O)N[C@@H](CC(C)C)C(=O)N[C@@H](CCCCNC(=O)CC[C@H](NC(=O)CCCCCCCCCCC(=O)O)C(=O)O)C(=O)N[C@@H](CCCCN)C(=O)N[C@H](C(=O)N[C@@H](CC(C)C)C(=O)N[C@@H](CC(C)C)C(=O)N[C@@H](CCC(=O)O)C(=O)N[C@@H](CCC(N)=O)C(=O)N[C@@H](CCC(=O)O)C(=O)N[C@@H](CCCCN)C(=O)N[C@@H](CCC(N)=O)C(=O)N[C@@H](CCCCN)C(=O)NC(C)(C)C(=O)N[C@@H](CCC(N)=O)C(=O)N[C@@H](CCCNC(=N)N)C(=O)N[C@@H](CCC(=O)O)C(=O)N[C@@H](CCC(N)=O)C(=O)N[C@@H](C)C(=O)N[C@@H](CCC(=O)O)C(=O)N[C@H](C(=O)N[C@@H](CC(N)=O)C(=O)NC1(C(=O)N[C@@H](CCC(N)=O)C(=O)N[C@H](C(=O)N[C@@H](CC(C)C)C(=O)N[C@@H](C)C(=O)N[C@@H](CCC(N)=O)C(=O)N[C@H](C(N)=O)C(C)C)[C@@H](C)CC)CCNCC1)[C@@H](C)O)[C@@H](C)CC)[C@@H](C)CC)C(C)C)C(C)C
Consider B5, for which the EC50 [nM] (cAMP) in assay [1] stood at 4.25 nM. In addition, in the assay with CRF1R receptor, the “Emax (% I)” value was determined as 3%.

B6: SEQ ID NO 6 (peptide)
peptide: Propionyl-VLSLD[dV]PIKLK([γGlu-C16 diacid])QILLKQERQKKQREQAEKNKQILEQV-NH2
SMILES: CCC(=O)N[C@H](C(=O)N[C@@H](CC(C)C)C(=O)N[C@@H](CO)C(=O)N[C@@H](CC(C)C)C(=O)N[C@@H](CC(=O)O)C(=O)N[C@@H](C(=O)N1CCC[C@H]1C(=O)N[C@H](C(=O)N[C@@H](CCCCN)C(=O)N[C@@H](CC(C)C)C(=O)N[C@@H](CCCCNC(=O)CC[C@H](NC(=O)CCCCCCCCCCCCCCC(=O)O)C(=O)O)C(=O)N[C@@H](CCC(N)=O)C(=O)N[C@H](C(=O)N[C@@H](CC(C)C)C(=O)N[C@@H](CC(C)C)C(=O)N[C@@H](CCCCN)C(=O)N[C@@H](CCC(N)=O)C(=O)N[C@@H](CCC(=O)O)C(=O)N[C@@H](CCCNC(=N)N)C(=O)N[C@@H](CCC(N)=O)C(=O)N[C@@H](CCCCN)C(=O)N[C@@H](CCCCN)C(=O)N[C@@H](CCC(N)=O)C(=O)N[C@@H](CCCNC(=N)N)C(=O)N[C@@H](CCC(=O)O)C(=O)N[C@@H](CCC(N)=O)C(=O)N[C@@H](C)C(=O)N[C@@H](CCC(=O)O)C(=O)N[C@@H](CCCCN)C(=O)N[C@@H](CC(N)=O)C(=O)N[C@@H](CCCCN)C(=O)N[C@@H](CCC(N)=O)C(=O)N[C@H](C(=O)N[C@@H](CC(C)C)C(=O)N[C@@H](CCC(=O)O)C(=O)N[C@@H](CCC(N)=O)C(=O)N[C@H](C(N)=O)C(C)C)[C@@H](C)CC)[C@@H](C)CC)[C@@H](C)CC)C(C)C)C(C)C
B6: in assay [1], the EC50 [nM] (cAMP) stood at 0.09 nM. Also, in the assay with CRF1R receptor, the midpoint of the response, the EC50, lay at 166 nM and the “Emax (% I)” value is 56%.

As usually defined, the EC50 is the concentration at which the effect is half-maximal. Low values mean greater potency, high ones weaker potency.
